# In article PMC11806106:
# Key:
# [1] = target: MOR-nLuc (rat µ opioid receptor, wild type, with C-terminal nLuc) (rat) (UniProt P33535)
# [2] = target: rat µ opioid receptor (MOR-wt) (rat) (UniProt P33535)
# [3] = target: MOR BRET sensor (G267-MOR sensor with mTurq2 replaced by nLuc2) (rat) (UniProt P33535)
substance,measurement,setting,value
DAMGO (peptide),"EC50 of agonist-induced arrestin3 interaction with MOR-nLuc (BRET, with GRK2)",[1],282 nM
same,EC50 of Go activation (BRET-based activity sensor Go1-case),[2],2.92 nM
same,EC50 of the agonist-induced change of the BRET ratio of the MOR BRET conformation sensor,[3],445 nM
